Measured values taken from the supplement of paper PMC7125110.
± gives the standard error. For part of these data: Fewer inactive variants are shown than the library holds.

B1: glmS ribozyme (parent)
chain: AUAAAAGCGCCAGAACUACAGAAAUGUAGUUGACGAGGAGGAGGUUUAUCGAAUUUUCGGCGGAUGCCUCCAAA

Experiments:
Details in all cases: with glucosamine-6-phosphate
glucosamine-6-phosphate [1] = variants of: B1; experiment: kcat; higher = faster cleavage; RNA array
In short: (§1)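 Barcoded glmS ribozyme variants on sequenced MiSeq chips were transcribed in situ by E. coli RNA polymerase and tracked through a hybridised Cy3 probe at 37 °C. Glucosamine-6-phosphate (40 μM to 10 mM) in HEPES/KCl/Mg(OAc)2 buffer was flowed in, and tiles were imaged over ~14 h. Signals were normalised to baseline and to non-cleaving reference variants; per-tile medians were fit to one- or two-exponential decays to give kobs. kcat and KM came from weighted Michaelis–Menten fits across concentrations.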

glucosamine-6-phosphate [2] = variants of: B1; experiment: KM; higher = weaker cofactor use; RNA array
In short: as §1

glucosamine-6-phosphate [3] = variants of: B1; experiment: self-cleavage kobs at 640 uM GlcN6P; higher = faster cleavage; RNA array
In short: as §1

glucosamine-6-phosphate [4] = variants of: B1; experiment: self-cleavage kobs at 2500 uM GlcN6P; higher = faster cleavage; RNA array
In short: as §1

glucosamine-6-phosphate [5] = variants of: B1; experiment: self-cleavage kobs at 10000 uM GlcN6P; higher = faster cleavage; RNA array
In short: as §1

glucosamine-6-phosphate [6] = variants of: B1; experiment: self-cleavage kobs at 160 uM GlcN6P; higher = faster cleavage; RNA array
In short: as §1

glucosamine-6-phosphate [7] = variants of: B1; experiment: self-cleavage kobs at 40 uM GlcN6P; higher = faster cleavage; RNA array
In short: as §1

Row | Variant | kcat (glucosamine-6-phosphate [1]) [s⁻¹] | KM (glucosamine-6-phosphate [2]) [µM] | self-cleavage kobs at 640 uM GlcN6P (glucosamine-6-phosphate [3]) [s⁻¹] | self-cleavage kobs at 2500 uM GlcN6P (glucosamine-6-phosphate [4]) [s⁻¹] | self-cleavage kobs at 10000 uM GlcN6P (glucosamine-6-phosphate [5]) [s⁻¹] | self-cleavage kobs at 160 uM GlcN6P (glucosamine-6-phosphate [6]) [s⁻¹] | self-cleavage kobs at 40 uM GlcN6P (glucosamine-6-phosphate [7]) [s⁻¹]
1 | AUAAAAGCGCCAGAACUACAGAAAUGUAGCUGACGAGGAGGAGGUUAAUCGAAUUUUCGGCGGAUGCCUCCAAA | 0.000176 ± 9.3e-06 | 1400 ± 190 | 5.72e-05 ± 8.2e-06 | 0.000106 ± 1.2e-05 | 0.00016 ± 1.6e-05 | – | –
2 | AUAAAAGCGCCAGAACUACAGAAAUGUAGCUGACGAGGAGGAGGUUUAUCGAACUUUCGGCGGAUGCCUCCAAA | 0.000253 ± 0.00011 | – | 7.76e-05 ± 1.2e-05 | 9.4e-05 ± 2.7e-05 | 0.000271 ± 4.1e-05 | 4.17e-05 ± 1.8e-05 | –
3 | AUAAAAGCGCCAGAACUACAGAAAUGUAGGUGACGAGGAGGAGGUUUAUAGAAUUUUCGGCGGAUGCCUCCAAA | < 1e-05 | – | – | – | – | – | < 1e-05
4 | AUAAAAGCGCCAGAACUACAGAAAUGUAGGUGACGAGGAGGAGGUUUAUCGAAUUUUUGGCGGAUGCCUCCAAA | 5.55e-05 ± 8.1e-06 | – | – | – | 4.54e-05 ± 1.6e-05 | – | –
5 | AUAAAAGCGCCAGAACUACAGAAAUGUAGGUGACGAGGAGGAGGUUUAUCGAAUUUUAGGCGGAUGCCUCCAAA | 0.000335 ± 5.6e-05 | 2550 ± 710 | 7.21e-05 ± 8.3e-06 | 0.000154 ± 1.8e-05 | 0.000293 ± 5e-05 | – | –
6 | AUAAAAGCGCCAGAACUACAGAAAUGUAGGUGACGAGGAGGAGGUUUAUCGACUUUUCGGCGGAUGCCUCCAAA | 0.00231 ± 0.0004 | 2690 ± 910 | 0.000512 ± 0.0001 | 0.00138 ± 0.00034 | 0.00177 ± 0.00022 | 0.000159 ± 6.4e-05 | –
7 | AUAAAAGCGCCAGAACUACAGAAAUGUAGGUGACGAGGAGGAGGUUUAUCGAAUUUUCGGCGGAUGACUUCAAA | 0.000403 ± 2.7e-05 | 353 ± 78 | 0.00027 ± 6.3e-05 | 0.000399 ± 0.00014 | 0.000369 ± 8.4e-05 | – | –
8 | AUAAAAGCGCCAGAACUACAGAAAUGUAGGUCACGAGGAGGAGGUUUAUCGAAUUUUCGGCGGAUGCCUCCAAA | 0.000158 ± 2.5e-05 | – | – | 0.000149 ± 3e-05 | 0.000134 ± 1.6e-05 | – | –
9 | AUAAAAGCGCCAGAACUACAGAAAUGUAGCUGACGAGGAGGAGGUUUAUCGAAUUUUCGUCGGAUGCCUCCAAA | < 1e-05 | – | < 1e-05 | – | < 1e-05 | – | < 1e-05
10 | AUAAAAGCGCCAGAACUACAGAAAUGUAGCUGACGAGGAGGAGGUUUAUCGAAUUUUCGGCGGAUUCCUCCAAA | < 1e-05 | – | – | – | – | < 1e-05 | –
